Laboratory results taken from PMC5474692.
Like-named read-outs stand apart in the source and are kept apart here. Values belong to the substance of their own block, whether it stands above or below them.

How the values were obtained:
Test in all cases: fluorescence anisotropy against solution viscosity
[1] = target: Rosmarinus
[2] = target: Rosmarinus; remark: listed apart in the source
[3] = target: Rosmarinus; remark: listed apart in the source
[4] = target: eqFP486
[5] = target: amFP486/K68M (UniProt Q9U6Y6)

Substance: Rosmarinus
- stoichiometry N [1]: 4
- stoichiometry N [2]: 4
- stoichiometry N [3]: 2

Substance: eqFP486 (natural protein)
- stoichiometry N [4]: 2

- stoichiometry N [5]: 4
Substance: amFP486/K68M (from UniProt Q9U6Y6 1-229) (natural protein)
